Test results as given in the supplement of paper PMC10126150.
± gives the standard deviation of the averaged measurements.

test system: ATP; test: switch fluorescence ratio, 500 uM ATP over buffer (Cy3 cluster intensity, sum of 5 cycles each) (fold (ratio)); higher = stronger signal-on switching upon ATP binding; sequences stand for … in TCGTCGGCAGCGTCAGATGTGTATAAGAGACAGTTTTTTTTTTTTTTTTTTTTTTTTT…TC; conditions: aptamer strand: ATP DNA aptamer (quencher-CACCTGGGGGAGTATTGCGGAGGAAGG + anchor), 100 nM annealed; ATP concentration: 500 uM
Summary of the method: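 Exposure to 500 uM ATP lasted 15 min at 22 °C before imaging, and a selection-buffer image was taken beforehand, for Cy3-labelled switching-strand clusters on a modified Illumina MiSeq flow-cell annealed to 100 nM quencher-labelled ATP aptamer. Five buffer/ATP cycles were run with NaOH stripping and re-annealing between them. The fluorescence ratio per cluster is summed target-cycle over summed buffer-cycle Cy3 intensity, averaged per switch-domain sequence. Clusters outside 100-1000 RFU were excluded.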

Row | Sequence | switch fluorescence ratio
1 | TTTTATCTGA | 1.02 ± 0.028
2 | TTGAAGGCGT | 1 ± 0.026
3 | AAGGGTATCC | 1.02 ± 0.013
4 | AATTATCTGT | 0.9792 ± 0.0065
5 | TTGGGTCGTT | 0.994 ± 0.014
6 | TCAGTATAGG | 1.01 ± 0.021
7 | GAAAAAGCAT | 1 ± 0.016
8 | ATAGAATGGT | 0.9829 ± 0.00046
9 | CAGAATTGGG | 0.967 ± 0.028
10 | GACGAATCAG | 0.97 ± 0.018
11 | TGATTGTACT | 1 ± 0.02
12 | GGGTCTTTGG | 0.97 ± 0.023
13 | TATTAGGGGC | 1.04 ± 0.036
14 | AGTGAGGCGG | 1.02 ± 0.013
15 | ATGTCTTGTG | 0.985 ± 0.026
16 | GGGGTAGGGC | 1.04 ± 0.057
17 | GGGTGTGCAT | 1.04 ± 0.016
18 | CGGGCGGCGG | 0.9921 ± 0.0076
19 | CGCCGGGTTT | 1.02 ± 0.018
20 | GGTTTCTGGG | 0.963 ± 0.017
21 | AGGCGTGTCA | 1.004 ± 0.0083
22 | TTAGGATG | 1.01 ± 0.0092
23 | TTGGGTGGC | 0.999 ± 0.011
24 | ATCATTAGGG | 0.976 ± 0.032
25 | AGTTGCTTCG | 0.975 ± 0.026

Row | Sequence | switch fluorescence ratio
26 | TGGGTATTAG | 0.992 ± 0.054
27 | CAAAAAACCT | 1.55 ± 0.55
28 | AGGTATAGGA | 1.01 ± 0.013
29 | TTTTTAACCT | 1.57 ± 0.36
30 | AGCCATAGTC | 1.113 ± 0.0056
31 | ATATTTAAAA | 0.985 ± 0.021
32 | ATTGAGCGGT | 0.983 ± 0.039
33 | ACTGTGGGGC | 0.9788 ± 0.0057
34 | AGGAATGGTT | 0.992 ± 0.041
35 | GGGGTATGTT | 0.99 ± 0.036
36 | TTGTTGTTGG | 1.01 ± 0.032
37 | CAGGATTTGG | 0.985 ± 0.013
38 | GTGTGTCCGG | 0.987 ± 0.026
39 | AAGAAAGGCA | 0.998 ± 0.033
40 | TATAAGAGAA | 0.972 ± 0.031
41 | ATGGTGGGGA | 1.03 ± 0.03
42 | TCGACGGGTG | 1.02 ± 0.043
43 | ATTAAAAGTG | 0.986 ± 0.013
44 | TTGACTGGTG | 1.02 ± 0.013
45 | AAGGGAGGCT | 1.01 ± 0.066
46 | CGATTTACTT | 1.02 ± 0.04
47 | TCAACAGGA | 1.01 ± 0.033
48 | AGGTCTAGAG | 0.976 ± 0.024
49 | TTAGTATTGG | 1.02 ± 0.019
50 | CGTTGTTTTG | 0.9848 ± 0.0091

Row | Sequence | switch fluorescence ratio
51 | TTGGAAAGGG | 0.985 ± 0.016
52 | CGTGCTTTCT | 0.999 ± 0.029
53 | ATCGGGGGCT | 0.98 ± 0.038
54 | TATTAATTGG | 0.9932 ± 0.0037
55 | TTTTTGTTAC | 1.08 ± 0.027
56 | GAAGACAGTA | 1.01 ± 0.013
57 | TAATCATGGT | 0.969 ± 0.024
58 | ATTCCCGGTC | 1.01 ± 0.066
59 | GGTTTCCGGC | 1.008 ± 0.0087
60 | TTTGGACGGT | 1.015 ± 0.0099
61 | GACATTTCGT | 0.992 ± 0.019
62 | GGGGGGAATG | 1 ± 0.03
63 | TTTGTCCCGT | 0.98 ± 0.026
64 | CCAGGGGGGG | 1.24 ± 0.32
65 | ATTTGCAAAG | 1.12 ± 0.21
66 | GTGGGAGGCT | 1 ± 0.024
67 | AGGCTGGGGT | 1.02 ± 0.031
68 | ACCCTGTGTA | 1 ± 0.021
69 | GAGAGGTTTT | 1 ± 0.029
70 | CTGGTTGCGG | 0.979 ± 0.021
71 | TCGCTATGCC | 0.991 ± 0.13
72 | GAAGATAGGT | 0.993 ± 0.03
73 | TTGGCCTTAG | 0.972 ± 0.015
74 | GCTTGCACTA | 0.998 ± 0.015
75 | TGGGTTGCTG | 1.05 ± 0.066

Row | Sequence | switch fluorescence ratio
76 | ACTGTACGCA | 1.51 ± 0.086
77 | AGGATCATGT | 0.966 ± 0.042
78 | TTATAGTTAT | 1.001 ± 0.0029
79 | GTTCGGGGAC | 1.026 ± 0.0094
80 | TATATGTGGG | 0.9705 ± 0.0077
81 | GGCGCTTATT | 0.963 ± 0.014
82 | TCTTGGCTTT | 0.976 ± 0.019
83 | GGTCAAAGTG | 1.004 ± 0.0058
84 | ACTGTGCCGG | 1.02 ± 0.043
85 | TTTTTGTCTT | 0.96 ± 0.023
86 | GATGGGGTTC | 1.01 ± 0.018
87 | TAGCATGTAC | 5.22 ± 0.65
88 | CAAGGGTGGC | 1.003 ± 0.0061
89 | ATGGGGGTAA | 1.01 ± 0.024
90 | TTGTCTGGGG | 0.985 ± 0.03
91 | GTGGGGTATT | 0.977 ± 0.028
92 | ATGGAAATGG | 0.996 ± 0.024
93 | TGGGGGGTCT | 1.02 ± 0.057
94 | GGGTGATTTT | 0.992 ± 0.049
95 | GATTGATGTT | 1.013 ± 0.009
96 | TGGTCTCTTT | 1 ± 0.039
97 | CAGTATGCAC | 1.01 ± 0.047
98 | CCTCGCGGGG | 1.08 ± 0.032
99 | AGAAGGCGCG | 1.01 ± 0.038
100 | ATGTATTTAT | 1.04 ± 0.061

Row | Sequence | switch fluorescence ratio
101 | TGTGGCAGTT | 1.02 ± 0.027
102 | ACTCAGCGCG | 1.08 ± 0.029
103 | AGTTTTTGGC | 0.999 ± 0.021
104 | GATTAAAGTT | 1.02 ± 0.033
105 | CTGTTGAATT | 1.01 ± 0.046
106 | TTCCCGATCA | 1.01 ± 0.018
107 | CGGCTGACGA | 1.03 ± 0.041
108 | AAAACATCGC | 1.015 ± 0.0029
109 | GTTTTATTTG | 1.01 ± 0.025
110 | GATTGGTCTT | 0.976 ± 0.03
111 | GCTCTGGCAA | 1.57 ± 0.07
112 | GGTTTTGGGT | 0.978 ± 0.026
113 | TTCGTACGAG | 1 ± 0.026
114 | AGGGATGCGG | 0.99607 ± 0.00094
115 | GGTGGCTGAA | 0.99 ± 0.022
116 | CCGATTGGCA | 1.55 ± 0.14
117 | AGAATTTAAA | 0.992 ± 0.032
118 | TTAGAAGGGA | 1.01 ± 0.056
119 | CGGCGGCGGG | 1.03 ± 0.015
120 | GAAACTGGAA | 0.997 ± 0.016
121 | GGGGCGAGTG | 1 ± 0.035
122 | CAGGGGCGGA | 1.04 ± 0.03
123 | CGTGCTGGGA | 1.03 ± 0.033
124 | ACAGACTTGT | 1.01 ± 0.037
125 | TGTTTGTAT | 0.9851 ± 0.0015

Row | Sequence | switch fluorescence ratio
126 | CGAGACAGGT | 1.04 ± 0.0098
127 | TAGGACGCGG | 1.04 ± 0.052
128 | TTGGGGGGGC | 0.997 ± 0.039
129 | TTTTGTAGTT | 1 ± 0.043
130 | GGTCTGATGG | 0.987 ± 0.035
131 | ACAGGAGCTT | 1.05 ± 0.04
132 | AGAGCTGGGA | 0.965 ± 0.015
133 | TGTGTTTGGT | 0.979 ± 0.021
134 | TTTCCCGGCT | 1.04 ± 0.083
135 | GGTTTATGGA | 1.03 ± 0.024
136 | GCTTGCTATT | 0.965 ± 0.021
137 | TTCCTCGGGT | 1.03 ± 0.014
138 | TACGGCAGTG | 0.998 ± 0.025
139 | CTCAGATGAT | 0.988 ± 0.013
140 | GCCAGTCTGG | 0.987 ± 0.025
141 | GTGGGGAATC | 1.02 ± 0.082
142 | GTAGTGGCAG | 0.992 ± 0.049
143 | CGTGCAGGGG | 1.057 ± 0.0013
144 | CGATATGTCG | 1.41 ± 0.33
145 | GGGCGGTTTT | 0.993 ± 0.043
146 | GGCCTACCGC | 1.13 ± 0.036
147 | GGAAATGTCG | 0.918 ± 0.078
148 | GGTTTGATAT | 0.972 ± 0.013
149 | AGCTGCCCCA | 1.18 ± 0.13
150 | TGAAAACGGT | 1 ± 0.035

Row | Sequence | switch fluorescence ratio
151 | TATTAGTAGC | 0.9995 ± 0.0013
152 | TTCGTGTTGG | 0.973 ± 0.025
153 | CAATAAAACA | 0.972 ± 0.013
154 | GACGACGTGT | 1.43 ± 0.35
155 | TTTTGCGGTC | 1.02 ± 0.053
156 | GGGGCTCTGT | 1 ± 0.012
157 | CTGTGGCCCG | 0.98 ± 0.027
158 | ATTACTCTAC | 1.27 ± 0.025
159 | TAATCCCTTT | 1.01 ± 0.04
160 | AGTAATGGG | 0.97 ± 0.054
161 | CGGTCCAGTA | 0.912 ± 0.048
162 | GCTTTCGATG | 1.02 ± 0.02
163 | ATAGCGCCGT | 1.01 ± 0.011
164 | TTGGGGACTT | 1.02 ± 0.07
165 | AGGAGATACT | 1.09 ± 0.15
166 | TTTGGTATGG | 0.997 ± 0.015
167 | CCGGAAGCAG | 3.95 ± 0.66
168 | CTAATAATCG | 1 ± 0.015
169 | TTGGAATTGA | 0.992 ± 0.012
170 | TTGTGGAAGC | 1.01 ± 0.025
171 | GTGTGATCTC | 0.992 ± 0.046
172 | TTGAGGATGT | 1 ± 0.034
173 | TAGGGGAGGC | 0.984 ± 0.016
174 | AAGTTAGGGG | 0.9756 ± 0.0084
175 | AGGTAATTAG | 1 ± 0.012

Row | Sequence | switch fluorescence ratio
176 | TTCGGAGCGG | 1.34 ± 0.24
177 | GGTGATTTTA | 1 ± 0.025
178 | AAAAGACCCG | 1.07 ± 0.044
179 | ACAATTAAGC | 1.04 ± 0.028
180 | AAGCTGCATG | 1.01 ± 0.018
181 | GTGGGGCACG | 0.9933 ± 0.0095
182 | GGCGCAAGCT | 1.02 ± 0.025
183 | CATGGGGTGG | 0.9671 ± 0.0014
184 | TTTCGGCGTT | 1.043 ± 0.0069
185 | GTCCGGGGGT | 1.07 ± 0.11
186 | TGCGGTCCTG | 1 ± 0.017
187 | TATCGTAGAG | 1.011 ± 0.0072
188 | AAGGTTATGT | 0.991 ± 0.02
189 | AGTTTGGTTC | 0.9876 ± 0.0078
190 | AAATTAGGGA | 0.978 ± 0.046
191 | AGAACTCTTT | 1.02 ± 0.022
192 | TTGACGTGCC | 1.021 ± 0.0033
193 | GGTCGGCGTC | 1.014 ± 0.0089
194 | TTAGGAAAGG | 1.06 ± 0.12
195 | TGGTTATAAT | 0.992 ± 0.024
196 | GCGACAAAAT | 1.11 ± 0.047
197 | GACGAAAATC | 1.2 ± 0.032
198 | TTAGGGGATT | 1.01 ± 0.027
199 | AGGGAGAGTT | 1.02 ± 0.017
200 | CCCATTATGC | 1.13 ± 0.057
